The text below walks through data of PMC8076310.

Broadly, the koff is the first-order rate constant of dissociation. As a reminder, the kon is the rate constant with which the complex forms. A low value points to slower complex formation. As usually defined, the Kd is the equilibrium constant for the complex coming apart. Read a low Kd as tighter binding.

The target of assay [1] is T1, Fc-GDF15 WT (knob-Fc-(G4S)5-GDF15 paired with hole-Fc, wildtype GDF15) (human) (UniProt Q99988).
T1 sequence (Q99988 whole entry, looked up): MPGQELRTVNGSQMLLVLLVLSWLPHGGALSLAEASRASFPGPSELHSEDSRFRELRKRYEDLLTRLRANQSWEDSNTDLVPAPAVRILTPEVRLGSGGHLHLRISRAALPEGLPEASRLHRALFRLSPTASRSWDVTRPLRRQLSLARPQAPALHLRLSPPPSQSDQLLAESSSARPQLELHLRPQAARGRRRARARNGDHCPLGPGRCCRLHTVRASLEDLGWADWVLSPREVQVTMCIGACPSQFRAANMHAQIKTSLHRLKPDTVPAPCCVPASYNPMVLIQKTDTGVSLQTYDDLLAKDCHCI
Nature of the assay: SPR; Biacore T200, 37 °C; Fc-GDF15 captured on anti-human IgG on a CM4 chip; GFRAL injected as analyte, two-fold series 25-1.56 nM (human) or 100-6.25 nM (murine), 60 s association, 120 s dissociation; 1:1 Langmuir model; duplicate.

For assay [2], the target named is Fc-GDF15 Mutant 2A (A3N/N5T/L36H) (human). The assay is described as above.
The target in assay [3] is Fc-GDF15 Mutant 3B (R4N/G6T/L36R) (human). The assay is described as above.
Assay [4] deals with Fc-GDF15 Mutant 3C (R4N/G6T/V98I) (human). The assay is described as above.
Assay [5] deals with Fc-GDF15 Mutant 3A (R4N/G6T/L36H) (human). The assay is described as above.
Assay [6] has as its target Fc-GDF15 Mutant 2 (A3N/N5T) (human). The assay is described as above.
For assay [7], the target named is Fc-GDF15 Mutant 2C (A3N/N5T/V98I) (human). Described as above.
In assay [8] the target is Fc-GDF15 Mutant 3 (R4N/G6T) (human). The assay is described as above.
Assay [9] addresses Fc-GDF15 Mutant 3C (R4N/G6T, V98I) (human). Nature of the assay: SPR; Biacore T200, 37 °C; anti-human IgG amine-coupled on a CM4 chip captures Fc-GDF15; GFRAL ECD injected in two-fold dilutions (human 25 to 1.56 nM, murine 100 to 6.25 nM), 60 s association, 120 s dissociation; double referencing, 1:1 Langmuir model; duplicate. In general terms: SPR reads the build-up and loss of mass on a sensor chip optically.

Assay [10] concerns the target Fc-GDF15 Mutant 3B (R4N/G6T, L36R) (human). The description is as above.
Assay [11] deals with Fc-GDF15 Mutant 3A (R4N/G6T, L36H) (human). The assay is described as above.
Assay [12] has as its target T2, Fc-GDF15 WT (wildtype Fc-GDF15 control; knob-Fc-(G4S)5-GDF15 paired with hole-Fc) (human) (UniProt Q99988).
T2 sequence (Q99988 whole entry, looked up): T1 sequence (Q99988 whole entry, looked up)
Described as above.

Assay [13] concerns the target Fc-GDF15 Mutant 2 (A3N/N5T) (human). The description is as above.
The target in assay [14] is Fc-GDF15 Mutant 2A (A3N/N5T, L36H) (human). The assay is described as above.
Assay [15] concerns the target Fc-GDF15 Mutant 2C (A3N/N5T/V98I) (human). The assay is described as above.
The target of assay [16] is Fc-GDF15 Mutant 3 (R4N/G6T) (human). The description is as above.

B1: human GFRAL extracellular domain (ECD), residues 19-351 (domain or fragment)
chain: SQTNNCTYLREQCLRDANGCKHAWRVMEDACNDSDPGDPCKMRNSSYCNLSIQYLVESNFQFKECLCTDDFYCTVNKLLGKKCINKSDNVKEDKFKWNLTTRSHHGFKGMWSCLEVAEACVGDVVCNAQLASYLKACSANGNPCDLKQCQAAIRFFYQNIPFNIAQMLAFCDCAQSDIPCQQSKEALHSKTCAVNMVPPPTCLSVIRSCQNDELCRRHYRTFQSKCWQRVTRKCHEDENCISTLSKQDLTCSGSDDCKAAYIDILGTVLQVQCTCRTITQSEESLCKIFQHMLHRKSCFNYPTLSNVKGMALYTRKHANKITLTGFHSPFNGE
As to B1, the koff in assay [1] came to 0.12 s⁻¹; in [2], 0.039 s⁻¹; in assay [3], 0.0283 s⁻¹; in [4], 0.0571 s⁻¹; in assay [5], 0.0402 s⁻¹; in [6], 0.1 s⁻¹. The koff in assay [7] was found to be 0.0574 s⁻¹; in assay [8], 0.113 s⁻¹. Moreover, the kon in assay [1] is 1.07e+07 M⁻¹ s⁻¹; in [2], 6.47e+06 M⁻¹ s⁻¹; in assay [3] it was 7.72e+06 M⁻¹ s⁻¹; in [4] it was 1.05e+07 M⁻¹ s⁻¹; in [5], 6.61e+06 M⁻¹ s⁻¹; in [6], 1e+07 M⁻¹ s⁻¹. The kon worked out at 1.03e+07 M⁻¹ s⁻¹ in assay [7] and 1e+07 M⁻¹ s⁻¹ in assay [8].

B2: Soluble human GFRAL extracellular domain (ECD) (receptor)
chain: B1 chain
As to B2, the Kd was determined as 5.44 nM in [9]; 3.68 nM in assay [10]; 6.09 nM in assay [11]; 11 nM in [12]; 10 nM in assay [13]; 6.03 nM in [14]. Moreover, the Kd in assay [15] was 5.52 nM; in [16], 11.2 nM.

B3: mouse GFRAL extracellular domain (ECD), residues 19-350 (domain or fragment)
chain: SQTNDCAHLIQKCLIDANGCEQSWRSMEDTCLTPGDSCKINNSLHCNLSIQALVEKNFQFKECLCMDDLHCTVNKLFGKKCTNKTDNMEKDNKDKWNLTTTPFYHGFKQMQSCLEVTEACVGDVVCNAQLALYLKACSANGNLCDVKHCQAAIRFFYQNMPFNTAQMLAFCDCAQSDIPCQQSKETLHSKPCALNIVPPPTCLSVIHTCRNDELCRTHYRTFQTECWPHITGKCHEDETCISMLGKQDLTCSGSESCRAAFLGTFGTVLQVPCACRGVTQAEEHVCMIFQHMLHSKSCFNYPTPNVKDISSYEKKNSKEITLTGFNSFFNGE
As to B3, the koff in [1] was 0.364 s⁻¹; in assay [2], 0.16 s⁻¹; in assay [3], 0.105 s⁻¹; in assay [4], 0.188 s⁻¹; in assay [5] it was 0.2 s⁻¹; in [6] it was 0.372 s⁻¹. The koff in assay [7] was found to be 0.179 s⁻¹; in [8], 0.474 s⁻¹. Further, the kon worked out at 1.61e+06 M⁻¹ s⁻¹ in [1]; 865000 M⁻¹ s⁻¹ in assay [2]; 1.26e+06 M⁻¹ s⁻¹ in assay [3]; 1.69e+06 M⁻¹ s⁻¹ in assay [4]; 1.13e+06 M⁻¹ s⁻¹ in [5]; 1.52e+06 M⁻¹ s⁻¹ in [6]. Also, the kon in assay [7] came out at 1.88e+06 M⁻¹ s⁻¹; in assay [8], 1.59e+06 M⁻¹ s⁻¹.

B4: Soluble mouse GFRAL extracellular domain (ECD) (receptor)
chain: B3 chain
B4: the Kd in assay [9] came out at 124 nM; in assay [10], 82.8 nM; in assay [11], 178 nM; in assay [12] it was 230 nM; in assay [13], 245 nM; in assay [14], 186 nM. In addition, the results for the Kd in [15] and in [16] were 95.8 nM and 300 nM, respectively.
